Patent publication US20200157237A1 (BROAD INSTITUTE, published 2020)
Blank lines part the entries; values can stand above or below the binder they belong to.

Assays:
Il12rb1 = biological target: T1, Il12rb1 (mouse, UniProt Q60837 20-738); assay: flow cytometry, His-tagged CD5L:p40 and anti-His antibody on T cells of wildtype or Il12rb1KO mice (FIG. 56A)
T1 construct: whole, on cells; Tie to CD5L:p40 rests on loss of staining and of effect in knockout cells; also called Ilrb1
T1 sequence (looked up): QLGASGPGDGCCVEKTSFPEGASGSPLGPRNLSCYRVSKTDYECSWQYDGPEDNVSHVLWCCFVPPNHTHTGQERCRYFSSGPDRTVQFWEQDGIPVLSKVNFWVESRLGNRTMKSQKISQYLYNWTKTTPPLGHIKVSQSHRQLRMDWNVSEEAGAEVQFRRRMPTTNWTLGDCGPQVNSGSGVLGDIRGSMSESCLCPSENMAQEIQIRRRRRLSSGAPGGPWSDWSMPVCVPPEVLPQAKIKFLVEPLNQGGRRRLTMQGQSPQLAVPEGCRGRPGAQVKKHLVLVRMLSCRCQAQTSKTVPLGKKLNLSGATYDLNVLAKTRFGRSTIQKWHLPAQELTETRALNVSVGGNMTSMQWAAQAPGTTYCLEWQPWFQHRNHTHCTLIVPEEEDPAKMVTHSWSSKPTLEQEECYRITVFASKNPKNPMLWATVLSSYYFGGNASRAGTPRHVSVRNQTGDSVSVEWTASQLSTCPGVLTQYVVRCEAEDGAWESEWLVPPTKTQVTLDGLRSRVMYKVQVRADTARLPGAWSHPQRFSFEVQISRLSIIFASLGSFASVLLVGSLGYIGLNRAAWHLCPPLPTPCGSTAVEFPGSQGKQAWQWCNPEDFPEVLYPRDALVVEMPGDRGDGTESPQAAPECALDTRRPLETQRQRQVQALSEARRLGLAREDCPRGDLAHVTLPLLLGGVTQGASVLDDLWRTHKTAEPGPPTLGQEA
Excerpt: FIG. 56A-F—Recombinant CD5L:p40 can bind to Th17 cells directly and alters T cell signaling pathways and metabolism. A) recombinant CD5L:p40 (his-tagged) were used to stain pathogenic Th17 cells (IL-1b+IL-6+IL-23),Th1 cells (IL-12) or Th0 cells differentiated from naïve T cells isolated from wildtype or Il12rb1KO mice followed by anti-His antibodies and analysis by flow cytometry. B-D) As Stat3 and Stat4 regulate IL-17 responses, we analyzed pStat3 and pStat4 expression. B-C) CD5L:p40 suppresses pStat3. 28 nM recombinant CD5L:p40 were used to stimulate naïve T cells in the presence of 10 ug/ml of anti-CD3 antibodies (TCR) with or without other indicated cytokines (B) or to stimulate Th17p cells (C) and cells were harvested for phosphoflow preparation and analysis of pStat3 at the indicated time points. D) CD5L:p40 suppresses pStat4 but not pTyk2. Western blotting analysis of pStat4 and pTyk2 expression by Th17p cells (equal protein loaded per lane) differentiated from naïve T cells isolated from wildtype mice and subjected to stimulation by either control (C), CD5L monomer (L), CD5L homodimer (LL), CD5L:p40 (L4) or p40:p40 homodimer (44) for the indicated time. E) CD5L:p40 suppresses pRictorY, pS6 and p38. To study whether CD5L:p40 influence other signaling pathways, we analysed several other phospho-proteins as indicated. […]

[1] = biological target: the molecule itself; assay: purification of recombinant CD5L (FIG. 8A)

binding result (Il12rb1): binds
B1: recombinant CD5L:p40 heterodimer (genetically linked mouse p40-linker-CD5L with His tag) (ligand)
chain: MWELEKDVYVVEVDWTPDAPGETVNLTCDTPEEDDITWTSDQRHGVIGSGKTLTITVKEFLDAGQYTCHKGGETLSHSHLLLHKKENGIWSTEILKNFKNKTFLKCEAPNYSGRFTCSWLVQRNMDLKFNIKSSSSSPDSRAVTCGMASLSAEKVTLDQRDYEKYSVSCQEDVTCPTAEETLPIELALEARQQNKYENYSTSFFIRDIIKPDPPKNLQMKPLKNSQVEVSWEYPDSWSTPHSYFSLKFFVRIQRKKEKMKETEEGCNQKGAFLVEKTSTEVQCKGGNVCVQAQDRYYNSSCSKWACVPCRVRSGGGSGGGSGGGSGGESPTKVQLVGGAHRCEGRVEVEHNGQWGTVCDDGWDRRDVAVVCRELNCGAVIQTPRGASYQPPASEQRVLIQGVDCNGTEDTLAQCELNYDVFDCSHEEDAGAQCENPDSDLLFIPEDVRLVDGPGHCQGRVEVLHQSQWSTVCKAGWNLQVSKVVCRQLGCGRALLTYGSCNKSTQGKGPIWMGKMSCSGQEANLRSCLLSRLENNCTHGEDTWMECEDPFELKLVGGDTPCSGRLEVLHKGSWGSVCDDNWGEKEDQVVCKQLGCGKSLHPSPKTRKIYGPGAGRIWLDDVNCSGKEQSLEFCRHRLWGYHDCTHKEDVEVICTDFDVTGHHHHHHHHGGQ
notes: also called mCD5L:p40; rCD5L:p40

B2: recombinant CD5L monomer with His tag (mCD5L construct) (ligand)
chain: ESPTKVQLVGGAHRCEGRVEVEHNGQWGTVCDDGWDRRDVAVVCRELNCGAVIQTPRGASYQPPASEQRVLIQGVDCNGTEDTLAQCELNYDVFDCSHEEDAGAQCENPDSDLLFIPEDVRLVDGPGHCQGRVEVLHQSQWSTVCKAGWNLQVSKVVCRQLGCGRALLTYGSCNKSTQGKGPIWMGKMSCSGQEANLRSCLLSRLENNCTHGEDTWMECEDPFELKLVGGDTPCSGRLEVLHKGSWGSVCDDNWGEKEDQVVCKQLGCGKSLHPSPKTRKIYGPGAGRIWLDDVNCSGKEQSLEFCRHRLWGYHDCTHKEDVEVICTDFDVTGHHHHHHH
notes: Made by Biolegend in 293E cells, purified on Ni Sepharose and Superdex S200 (monomer fraction); also called soluble CD5L; sCD5L
binding result [1]: binds
